Assay: label from the status in PepcDB records
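Note: failed if final PepcDB status was selected cloned or expressed and not failed if soluble or beyond.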

Sequence	protein production
MFFKQFYDNHLSQASYLVGCQRTGEAIIIDPVRDLSKYIEVADSEGLTITQATETHIHADFASGIRDVAKRLNANIYVSGEGEDALGYKNMPSKTQFVKHGDIIQVGNVKLEVLHTPGHTPESISFLLTDLGGGSSVPMGLFSGDFIFVGDIGRPDLLEKSVQIKGSTEISAKQMYESVQNIKNLPDYVQIWPGHGAGSPCGKALGAIPISTIGYEKINNWAFNEIDETKFIESLTSNQPAPPHHFAQMKQVNQFGMNLYQSYDVYPSLDNKRVAFDLRSKEAFHGGHTKGTINIPYNKNFINQIGWYLDFEKDIDLIGDKSTVEKAKHTLQLIGFDKVAGYRLPKSGISTQSVHSADMTGKEEHVLDVRNDEEWNNGHLDQAVNIPHGKLLNENIPFNKEDKIYVHCQSGVRSSIAVGILESKGFENVVNIREGYQDFPESLKLEHHHHHH	not failed
MKIFRSIDEIREPLPSPVVTIGNFDGVHLGHREIFRRVKREAARLDGVSMVITFTPHPLKVLGLRKELRLINTYAEKELLIEASGIDCLLTIPFTAEFAAIGAERFVGEILVGRIGVKKLVIGYDYAFGRNREGDVAMLRRMGEEHGFEVEVLEQIASGETVYSSSAVRRMIAAGNVREVVSLIGRHYSVGGTVVHGRRRGKDLGFPTANLRTEKELIPAAGVYAVKVRVDDTIRDGACNIGNNPTFGNEEVTVEVHILDFDGDLYGKEIRVYFVDRVREELRYPDLNALKEGISRDVARCRELLAGVSIIEYRDYLGGDAA	failed
MKRKTLLMAALMGGCSLQGMAQQITPKDVAGDKEYNRVCREYELKGGDSMELLQAYLDKYPDSRHKNRVLSLIASAYFMEGKYKEAIALFRSCDLEALPDKERDDCAMRLATSYLKEDNLREAAVWFTLLKEVSPLYQDDAVYNLAYIDYVEKRYDKALKSFQSLQNDAVYAALVPYYIGEIYLVKGNYQQARTVAKAYLEQYPAKKDVPQMERIWGEACFGLNDYQAAIPPLERYRESVSHPQRKPLYELGMSYYYTGVYSKAAATLGEMASVHDALSQNAYLHMGLAYLNLKERNRARMAFEQAANFSFDPKVKEQALYNYALCIHETSYSPFAESVTVFERFLNEFPNSPYTERVNDYLIEVYMNTRSYEAALKSIAKIEHPGTRIMEAKQKILFRLGTQAFANARFQEALEFFNQSLAVGQYNQATKADAYFWRGESNYRLDRFPQAGNDYRLYLEFATSKNGQEYGLALYNLGYTYFKQKNYGNAGTWFTRFVDRGSINERTMQADAYNRIGDCNFYDRRFEQARQDYARAVEIDPSLGDYSLYQEAFVRGLQRDYNGKVQTLNRLISDYPESQYMDDALYEQGRAFVQMEDNANAIARFNILVKKFPESNVARRAANEIGLLYYQDDKYPEAIQAYKQVIAGYPGSEEARLAQRDLKSIYIDLNKVDEYANFASTIPGGANFDVNERDSLTYVAAERVYMRGEVAEARNSFTRYLQTFPEGAFSLNANYYIGLIDYNQKAYESAARHLDKVLEYPNNKYSEDAMLMGAEMAYTAKDYEKALHIYKQLKDKAASMERRRLAKTGMLRSAHMLGNEEEIIFAATDLLADTKLAPELSNEAHYYRAKAYLDAGKTDGAMEDLKVLAKDTRNVYGAEAKYKVAQIYFDGGQTDKAEQEVLNYIEVSTPHTYWLARSFVLLADVYMKLGRNLDAKQYLLSLKQNYQADDDIAGMIESRLEKLKTEN	failed
MKKRLLKSFSFSYNSQDENRRLLERLMQYKSKDADKLNEENESIIRKRSAKLKRDLEDAVREPSSSSNAASSPGAASLQRNSSPAQFVGGLIGDEDFDEAAINGAMEAIGLDDNEYISARFTAGEIAENSRASIDTLKATGYLGQANPTKILMKFEAHENESHAVRWSPVERMVATGGADRKVKLWDIGKNSTEPRAVLSGSSAGINSVDFDSTGAYILGTSNDYGARVWTVMDNRLRHTLTGHSGKVMAAKYVQEPIKVVTGSHDRTLKIWDLRSIACIETKFAGSSCNDLVTTDSLGSTIISGHYDKKIRFWDIRTEKQADDVLMPAKITSLDLSKDCNYLICSVRDDTIKLLDLRKNQVISTFTNEHFKISCDFARASFNSSGLKIACGSADGAIYIWNVNGFLEATLKGHSTAVNAVSWSPNNNMLASVGKNKRCTIYSES	failed
METAKDGEQSPSEASPPTQAGPETISEPVPLEEEGQPLYHEETIDLGGDDFASEETEPTSEGSHNFGDKLNEHMMESVLISDSPNNSEGDVGDLGCLQDVGEPPRGATDHRLPDSTDKEVVDTLSNGSETDGDDTPRDISDMTPDSRASLKEDSTQEDVPAMPALENAGTEEVGPKDSLVPREEQTSEVSSSQSSSKDEPLPVCTIFSQATSTSSQPHLFLQDGFESQMVKSPSFSSTSETSAKTPPPMVQPSPSLSTFFGDTMSSNSLASDFFDSFTTSTFISVSNPNAGSPVPEKLASLTAPVGEKSPDSTSPSYSTRMDRSESGVSRAALDVPESPKPFSQIQAVFAGSDDPFATALSMSEMDRRNDAWLPSQATREVLMSVATQQYGTVFIDKENLTMPGLKFDNIQGDAVKDLMLRFLGEKAAAKRQVLNASSVEQSFVGLKQLISCRNWRAAVDLCGRLLTAHGQGYGKSGLPTNHTTDSLQLWFVRLALLVKLGLFQNAEMEFEPFGNLDQPDLYYEYYPHVYPGRRGSMVPFSMRILHAELQQYLGNPQESLDRLHRVKTVCSKILANLEQGLAEDGGLSSVTQESRQASVQLWRSRLGRVLYSMANCLLLMKDYVLAVNAYLTVIKYYPEQEPQLLSGIGRILLQIGDIKTAEKYFQDVEKVTQKLDGLQGKIMVLMNRAFLYLGQNNFAEAHKFFTEILRMDPTNAVANNNAAVCLLYLGKLKDSLRQLEAMVQQDPRHYLHESVLFNLTTMYELESSRSMQKKQSLLEAVASKEGDSFNTQCLKLA	failed
MLMKVAEFERLFRQAAGLDVDKNDLKRVSDFLRNKLYDLLAVAERNAKYNGRDLIFEPDLPIAKGLQETLQEFRRMDTALELKPVLDALAALPPLDLEVAEDVRNLLPELAGALVVAYARVLKELDPALKNPQTEHHERAERVFNLLL	not failed
MITRLTDIELEQIRGVIFDLDGTLAHSNPDFKGLRAALGIGSGTDILEHIHSLETTVAKMQALEIVHDYELESSRQASWIEGAQALIAFLKTRQLPLAILTRNMPEAAKITIEKLGIDIPLVLTRYDAEPKPHPQGIYLICEQWQLNPADILYVGDYLFDLQTAQNAGSRCALYCPEDVPDYAQAADLLVSCYHSLIQAWPK	failed
MSKANVYQQRPEPGVHAESPLHHAELHKLAGKTAAKAGIVLREKKLLGHLVLRGDAADPAFAAAVHQALGLELPVALTLVASGETSLQWLAPDEWLLIVPGGEEYAVEQRLRQALGEELHYAVVNVSGGQTLLELSGANVRELLMKSTSYDVHPSNFPVGKAVGSIFAKSQCVIRHTGEDTWELVVRRSFADYFWLWLQDASAEYGLQVAA	failed
MKLVKNLEIVESIFGDWDETIIWSCVQGIMGEVFVDSLDQPKSSLAKLGRKSSFGFLAGQPTLFLLEVCSGEDIILVPQHKGWSDLIESTYGQNAHSFKRYATKKDTLFERSRLEKFVTQLPNGFELRAIDEKVYNSCLEKEWSQDLVANYATYQYYKKQGIGYVVYYQGNIIAGASSYSTYKNGIEIEVDTHPDFRRRGLATIVAAQLILTCLDKGIYPSWDAHTRTSLNLSEKLGYEFSHEYIAYEID	failed
MFGQWEFDVSPTGGIAVASTEVEHFAGSQHEVDTAEVPSAAWGWSRIDHRTWHIVGLCIFGFLLAMLRGNHVGHVEDWFLITFAAVVLFVLARDLWGRRRGWIR	failed
MVSWHPSVYLAQRTSKAAKNILAAPPLILSISFIFLILIGTLILKLPISTTVPVTWSQSLFNATSAVTVTGLVVFDVGTVYTTFGQVVIALLIQLGGLGIMTFAIVTLLALGAKIGFLQNTIAKEAYNSTNTATLVTTAKSVLIFSLCVELIGMIILAVSWSDELGWRTSLFHGFFYTISAFNNAGIGLSPDSLMPYVEDPIINLTITALFIIGGLGFTVWIDLWRKKRWDKLTTYSKMMIIGTISINAIAVLAIYCIEYNNPKTLVPLSETGKWLASWFQAVTPRTAGFNTLAMNELEDATTAIMLMLMFIGGGSLSTASGIKVVTFMVLILATYGYLRRYDFVYVYHRGISKDTISKALALAMISVGTIWASIFFLLLSENASMIDIIFEAVSAFGTVGLSRGLTSNLTVTGQFIIIFLMFMGRLGPLTLAYFLASPKSKRIRYPETKLTIG	failed
MTPGTIFLSSQVLMPSEDDTKRFHLAEGQELFYLERVRTADGQPIVYCIDKIPMNILPNSFSHQQESMFDLLEKNSGSVISYAVTDIEPIGYHDTISPVLECDPETALLLLKQTHYDQHDKPVLYSLNYFRA	not failed
MEDIEYLDEYKDLVLPGIKSSAPTASSAGVPRQRRISSDSSNSSSIDADIFQKLFHGKYLDDELLKEGSGSKSQDRRRRPPSPSSSDESNDALEALFCGK	failed
MTAPEPSRDAKRLVRIDGVTKRFGDAPPALDAVSGAIGGGAITGLVGPDGAGKTTLIRLMTGLMLPDTGTMNVLGFDTRKNAAGIQAAIGYMPQRFGLYEDLSVQENLDLYADLRGLPKSERAGAFDELLTFTDLKRFTTRLAGKLSGGMKQKLGLACALLKKPRLLLLDEPGVGVDPISRRDLWKMVENLTKEGIGVVWSTAYLDEAEACDHVLLLNQGKLLFSGKPDEMTERVSDRVFRVSDVTGRRRQVLAELLQADGVIDGVIQGEAIRLVAANGKTPDIGKAGDGALLSPAPPRFEDAFVDMLGGGPGGRSRLAEAQEPLKAEGDRPVIEAKGLTKRFGDFTAADDISFDIRRGEIFGLLGPNGAGKSTTFKMLCGLLKPTGGEGRVAGFDLRRDAAEARNQLGYMAQKFSLYGDLTVMQNLEFFAGVYGLRGQRRHERIELMTEIFDFGRHAREPAKDLPLGLKQRLALACAVMHEPRALFLDEPTSGVDPITRREFWTHINGLVEKGVTVLVTTHFMDEAEYCDRISLIYRGRSIALGSPDELKARVATKNGPDPTMEDAFIALVQQSEAEDAA	failed
MSGADTKKKLVGRHKRVAFMDVAGDGKTYTRMTGFTSMSESKNASEYSRHYVDEESERTDVVGYAPSNDYEFDRYTNDLVQQKISEITDDELLGSDAQVSIVVVDLFDIKTDTPNTCVARKRDWSVVPDNSGDGTDALIYKGSLKANGEKIKGTATTTDNWQTCTFAAD	failed
MIVFDGHNDVLTELVRAGGRAAAGGFLSGLPGQLDLPRARAGGFGGGFFALWARSEGATDFSTLGPEYDLPLPEPVPEAQAWEMIRAQADTLVALEEAGAVRICTSTAQIARARDEGLLGAILHLEGAEGIGPDFYELEELYALGLRSLGPVWSRPNAFGHGVPFRYPSGPDIGPGLTERGRALIARCEELRILIDLSHLNLAGFREVAALSKRPLVATHSNAHARVPHARNLTDEQLRIMAESGGLAGVNFESTFLRPDGRPDDDIPAAWLLAQFDHLLDRLGEEGVAIGSDYDGCTPPAWLNSVDKLPALIAAMERHGYPAARIERICWGNWMRVLAETWGESA	failed
MNFEYPDGATPLDSDEAEGLLLTHITSRGELDRWEQENIAEGEAWAFGRRQKNILSEAFIRRLHKRMFGHVWRWAGEFRRSDKNIGVTWWQVPIELRKLCDDVVAWIAFGTYPPDEIAVRFHHRLVAIHPFANGNGRHARTMTDLLLVQALQRPRFTWGSGNLVSVGDCRRYYIEALRAADRHDYQLLLEFVRMLEHHHHHH	failed
MKKRKLLAVTLLSTILLNSAVPLVVADTSLRNNTSSTDQPTTADTATDAESETAKKDKKSKETASQHDTQKDHKPSHTHPTPPSNDTKQTDQASSEATDKPNKDKNDTKQPDSSDQSTSSPKDQSSQKESQNKDGRPTPSPDQQKDPTPDKTPEKSADKIPEKATEKTPEPNRDAPKPIQPPLAAAAPVFIPWRESDKDLSKLKPSSRSSAAYVRHWTGDSAYTHNLLSRRYGITAEQLDGFLNSLGIHYDKERLNGKRLLEWEKLTGLDVRAIVAIAMAESSLGTQGVAKEKGANMFGYGAFDFNPNNAKKYSDEVAIRHMVEDTIIANKNQTFERQDLKAKKWSLGQLDTLIDGGVYFTDTSGSGQRRADIMTKLDQWIDDHGSTPEIPEHLKITSGTQFSEVPVGYKRSQPQNVLTYKSETYSFGQCTWYAYNRVKELGYQVDRYMGNGGDWQRKPGFVTTHKPKVGYVVSFAPGQAGADATYGHVAVVEQIKEDGSILISESNVMGLGTISYRTFTAEQASLLTYVVGDKLPRP	failed
